Experimental findings from US20080039411A1, “Use Of Resistin Antisense Oligonucleotides And/Or Sirna Molecules In The Treatment Of Rheumatoid Arthritis” (priority 2004, published 2008) are described below.

Experiment [1] relates to human PBMC (resistin mRNA). The experiment in a line: Stimulation of human PBMC with pro-inflammatory cytokines: resistin mRNA. It counts as cell-based. The note with it: human PBMC (n=5), physiological concentrations (TNF-alpha 1-5 ng/ml). On the procedure:
(§1) Peripheral blood mononuclear cells (PBMC) were prepared from heparinized blood of healthy individuals by separation on a Lymphoprep density gradient, washed, and resuspended in complete medium (Iscoves medium containing 1% L-glutamine, 5×10^−5 M ®-mercapto ethanol, […] of gentamycin sulphate, and 10% heat inactivated fetal calf serum). Culturing of PBMC was carried out in 24-well plates in a humidified atmosphere of 5% CO2 at 37° C. Culturing of monocytic cell line THP-1 (American Type Culture Collection, Manassas, Va.) was performed in 10-ml culture flasks (Nunclon) in […] medium supplemented with 10% FCS, 1% sodium pyruvate, gentamycin, and 2.5% Hepes in a humidified atmosphere of 5% CO2 at 37° C. For the experiments, 4-days old cells were harvested, washed, and adjusted to 1×10^6 cells/ml.
(§2) Total RNA from harvested cells was extracted by an RNAeasy kit (Qiagen, Inc.) and concentration was assessed spectrophotometrically at 260 nm. The gene expression was measured with TaqMan real time PCR (Applied Biosystems, Foster City, Calif.) as previously described (N&S, 2001). In short, total RNA extracts were treated with deoxyribonuclease I, and reverse transcribed with random nonamer primers and superscript II RnaseH-reverse transcriptase (life Technologies). After first strand cDNA synthesis, relative transcript cDNA levels were measured using oligonucleotide PCR primers and fluorogenic Taqman probes for test genes and 18S rRNA. […] For generation of the standard curve, serially diluted cDNA prepared from PBMC were used. Each TaqMan set span one or two exon joints in order to increase further both specificity of only RNA detection and efficiency of PCR reaction. Sequences were manually designed with using the PrimerExpress program (Applied Biosystems) to check them for secondary structure, melting temperature, GC content, primer to primer and/or to probe dimmers. The GenBank database was useful to avoid all known sites of oligonucleotide polymorphism and unspecific annealing of any nucleotide.

In the next experiment the test system is THP-1 cells. The experiment is described as follows: Stimulation of monocytic cell line THP-1. The class given is cell-based, human. As for the experimental part:
as §1

In experiment [2] the test system is knee joint of healthy mice. The experiment in a line: Intra-articular injection of recombinant mouse resistin into knee joint, histology. It counts as in vivo. As for the experimental part: Female NMRI mice, 6-8 weeks old, weighing 25-30 g, were purchased from ALAB (Stockholm, Sweden). The mice were bred and housed in the animal facility of the Department of Rheumatology, University of Göteborg, under standard conditions of temperature and light, and fed laboratory chow and water ad libidum. Mouse recombinant resistin (PeproTech EC, London, U.K.) was injected intra-particularly into the right knee joint (0.1-100 ng/knee) in the total volume of 20 μl. Control mice obtained equivalent volume of mouse albumin (Sigma, St. Louise, Mo.) in PBS buffer. Three days after the joint injection, the mice were sacrificed by cervical dislocation and the right knee was removed for histological examination.
Histological examination of joints was done after routine fixation, decalcification, and paraffin embedding of the tissue. Tissue sections of the knee joints were cut and stained with hematoxylin and eosin. All the slides were coded and evaluated blindly by two investigators with respect to synovial hypertrophy, the inflammatory cell infiltration of synovia, pannus formation, and cartilage and subchondral bone destruction. Synovial hypertrophy was defined as synovial membrane thickness of more than two cell layers. Intensity of in-flammatory cell infiltration of synovia was graded arbitrarily from 0 to 3.

A further experiment deals with synovial cells. The experiment is described as follows: In vitro stimulation of synovial cells from patients with acute synovitis. The class given is cell-based, human. The note with it: synovial cells from patients with acute synovitis (n=4). On the procedure:
as §2

Another experiment concerns human PBMC. The experiment in a line: Resistin stimulation of PBMC: cytokine gene expression and cytokine release. It counts as cell-based. On the procedure: as §1
Freshly isolated PBMC were re-suspended to 2×10^6/ml and stimulated with recombinant human resistin (endotoxin concentration less than 0.1 ng/μg, PeproTech) at final concentration 10-1000 ng/ml. LPS (10 ng/ml) was used as a positive control in all the experiments. […] Cell stimulation period differed depending on the read-out system used. […]
Total RNA from harvested cells was extracted by an RNAeasy kit (Qiagen, Inc.) and concentration was assessed spectrophotometrically at 260 nm. The gene expression was measured with TaqMan real time PCR (Applied Biosystems, Foster City, Calif.) as previously described (N&S, 2001). […] After first strand cDNA synthesis, relative transcript cDNA levels were measured using oligonucleotide PCR primers and fluorogenic Taqman probes for test genes and 18S rRNA. […]
The level of IL-6 in synovial fluid and supernatants was determined by a bioassay. The effect of test samples on proliferation of the IL-6 dependent cell line B13.29 [21] was assessed following 72 h of culturing. The results were analyzed by incorporation of [3H]-thymidine (Radiochemical Centre, Amersham, Bucks, U.K.) during the last 4 h of incubation at 37° C. […]
Levels of TNF-α and IL-1B were assessed using an ELISA kit (R&D Systems) following manufacture's recommendations. […]

The next experiment deals with NF-kappaB. The experiment in a line: Electrophoretic mobility shift assay of nuclear extracts of resistin-stimulated PBMC. It counts as cell-based, human. Particulars: PBMC stimulated with resistin. As for the experimental part: Human PBMC (10^7) were stimulated with recombinant resistin (10-500 ng/ml) as described above. After 2 h, the stimulation was stopped with ice-cold PBS, cells were washed and resuspended in 2 ml hypotonic buffer (pH 7.9, containing 10 mM HEPES, 0.1 mM EDTA, 0.1 mM EGTA, 10 mM KCl, 0.75 mM spermidin, 0.15 mM spermin, […] and proteinase inhibitors, Complete MiniTab, Boehringer) and homogenised. Following centrifugation at 14000 g at 4° C. for 10 min, the supernatant was removed and the pellet was resuspended in the ice-cold extraction buffer (pH 7.9, 20 mM HEPES, 0.42 M NaCl, […], 1 mM EGTA, 25% glycerol, […] and proteinase inhibitors). Extraction proceeded at 4° C. under continuous rotation for 1 h. The supernatants containing nuclear extracts were collected after centrifugation 14000 g for 1 h at 4° C. Protein concentration in the extracts was determined using Bradford reagent (Sigma). Nuclear extracts were aliquoted and stored at −70° C. until use.
EMSA was performed as described elsewhere (Bergquist et al., 2000) with minor modifications. The sequences for oligonucleotides used for the assay were as follows:
Oligonucleotides were annealed at 56° C. The double stranded product was purified by elution from the electrophoretic gel. […]
For orientation: In EMSA bound probe runs differently from free probe, usually more slowly.

Turning to “IL-1b: pro-inflammatory cytokine used to stimulate PBMC”, the “induction of resistin mRNA” value in experiment [1] is reported as “less efficient”.

Regarding “IL-6: pro-inflammatory cytokine used to stimulate PBMC”, in experiment [1], the “induction of resistin mRNA” value is “less efficient”.

With TNF-alpha, the “expression of resistin gene” value in the experiment with THP-1 cells (THP-1 cells) is “neither stimulation with TNF-a nor with LPS gave rise to the expression of resistin gene”. For the same molecule, in experiment [1], the “induction of resistin mRNA” value is “could induce the expression of resistin”.

B1: recombinant mouse resistin: Mouse recombinant resistin (PeproTech EC, London, U.K.) (protein, UniProt Q99P87 21-114, looked up)
Resistin: SSMPLCPIDEAIDKKIKQDFNSLFPNAIKNIGLNCWTVSSRGKLASCPEGTAVLSCSCGSACGSWDIREEKVCHCQCARIDWTAARCCKLQVAS
As for B1, in experiment [2] (0.1-100 ng/knee intra-articularly, three days after injection), the “histological analysis of injected joints” value is listed as “signs of inflammation in the joint”. The “leukocyte infiltration and hyperplasia of synovia” value in experiment [2] (single intra-articular injection, 1 ng/knee (50 ng/ml)) is “sufficient to induce leukocyte infiltration and hyperplasia of synovia”.

B2: recombinant human resistin: recombinant human resistin (endotoxin concentration less than 0.1 ng/μg, PeproTech) (protein, UniProt Q9HD89 19-108, looked up)
Resistin: KTLCSMEEAINERIQEVAGSLIFRAISSIGLECQSVTSRGDLATCPRGFAVTGCTCGSACGSWDVRAETTCHCQCAGMDWTGARCCRVQP
Take B2: the cytokine production entry with THP-1 cells (THP-1 stimulated with resistin) is given as “cytokine production in the pattern similar to PBMC”. For the same molecule, the “expression of TNF-alpha and IL-6 genes” value in the experiment with synovial cells was “increased expression of TNF-alpha and IL-6 genes”. Also, the “IL-6 activity and levels of TNF-alpha and IL-1b in supernatants” value in the experiment with human PBMC (PBMC, 48 hours of stimulation) is “dose dependent increase”. The “cytokine gene expression (TNF-alpha, IL-6, IL-1b) in cell lysates” value with human PBMC (PBMC, resistin 10-1000 ng/ml) is “induction of genes for pro-inflammatory cytokines”. The “resistin gene expression in PBMC” value in the experiment with human PBMC (resistin stimulation, detectable following 3 h up to 24 h) is given as “self-stimulation of resistin gene”. Moreover, the “NF-kappaB translocation (EMSA)” value in the experiment on NF-kappaB is given as “induced translocation of NF-kappaB from cytoplasma to nucleus”.
